The supplement of paper PMC10567573

B1: RAB40A (parent)
chain: NWLGRPSKVLSLQDLCCRTIVSCT
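Also: lentivirally expressed fusions sorted by FACS into six bins by GFP to DsRed ratio, PSI derived from sequencing read proportions per bin multiplied by bin number.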

Variants of: B1
Experiment: protein stability index of a GFP-peptide fusion (GPS, HEK-293T) (PSI 1-6); higher = more stable
Details: c terminus: a fixed tail appended
Variant NWLGRPSKVLSLQCLCCRTIVSCT has a protein stability index of 1.78. For NWLGRPSKVLSLQILCCRTIVSCT, the protein stability index was 1.48. With NWLGRPSKVLSLQELCCRTIVSCT the protein stability index was 2.54. With NWLGRPSKVLSLQLLCCRTIVSCT the protein stability index was 1.67. With NWLGRPSKVLSLQQLCCRTIVSCT the protein stability index was 2.12. For NWLGRPSKVLSLQMLCCRTIVSCT, the protein stability index was 1.58. Work on NWLGRPSKVLSLQTLCCRTIVSCT yielded a protein stability index of 2.11. In the case of NWLGRPSKVLSLQKLCCRTIVSCT, the protein stability index is reported as 1.9. For NWLGRPSKVLSLQHLCCRTIVSCT, the protein stability index was 2.13. NWLGRPSKVLSLQWLCCRTIVSCT gave a protein stability index of 1.84. Work on NWLGRPSKVLSLQGLCCRTIVSCT yielded a protein stability index of 2.45. In the case of NWLGRPSKVLSLQPLCCRTIVSCT, the protein stability index is reported as 1.97. Variant NWLGRPSKVLSLQRLCCRTIVSCT has a protein stability index of 1.51. In the case of NWLGRPSKVLSLQYLCCRTIVSCT, the protein stability index is reported as 2.04. With NWLGRPSKVLSLQALCCRTIVSCT the protein stability index was 1.99. In the case of NWLGRPSKVLSLQFLCCRTIVSCT, the protein stability index is reported as 2.14. NWLGRPSKVLSLQSLCCRTIVSCT showed a protein stability index of 2.07. In the case of NWLGRPSKVLSLQVLCCRTIVSCT, the protein stability index is reported as 1.72. Variant NWLGRPSKVLSLQNLCCRTIVSCT has a protein stability index of 2.29. For NWLGRPSKVLSLQDLKCRTIVSCT, the protein stability index was 2.25. NWLGRPSKVLSLQDLGCRTIVSCT showed a protein stability index of 1.44. Variant NWLGRPSKVLSLQDLTCRTIVSCT has a protein stability index of 2.06. Variant NWLGRPSKVLSLQDLLCRTIVSCT has a protein stability index of 2.02. For NWLGRPSKVLSLQDLICRTIVSCT, the protein stability index was 2.17. NWLGRPSKVLSLQDLECRTIVSCT gave a protein stability index of 1.9. In the case of NWLGRPSKVLSLQDLPCRTIVSCT, the protein stability index is reported as 2.02. NWLGRPSKVLSLQDLHCRTIVSCT showed a protein stability index of 1.58. NWLGRPSKVLSLQDLFCRTIVSCT showed a protein stability index of 2.44. In the case of NWLGRPSKVLSLQDLRCRTIVSCT, the protein stability index is reported as 1.75. For NWLGRPSKVLSLQDLNCRTIVSCT, the protein stability index was 1.61. With NWLGRPSKVLSLQDLSCRTIVSCT the protein stability index was 2.31. With NWLGRPSKVLSLQDLACRTIVSCT the protein stability index was 2.5. NWLGRPSKVLSLQDLYCRTIVSCT showed a protein stability index of 1.44. For NWLGRPSKVLSLQDLMCRTIVSCT, the protein stability index was 1.98. With NWLGRPSKVLSLQDLWCRTIVSCT the protein stability index was 2.79. Variant NWLGRPSKVLSLQDLQCRTIVSCT has a protein stability index of 1.51. In the case of NWLGRPSKVLSLQDLDCRTIVSCT, the protein stability index is reported as 2.2. Variant NWLGRPSKVLSLQDLVCRTIVSCT has a protein stability index of 2.19. Variant NWLGRPSKVLSLQDLCCPTIVSCT has a protein stability index of 1.61. NWLGRPSKVLSLQDLCCDTIVSCT gave a protein stability index of 1.99. For NWLGRPSKVLSLQDLCCFTIVSCT, the protein stability index was 1.87. Variant NWLGRPSKVLSLQDLCCHTIVSCT has a protein stability index of 1.98. NWLGRPSKVLSLQDLCCKTIVSCT showed a protein stability index of 2.65. Work on NWLGRPSKVLSLQDLCCATIVSCT yielded a protein stability index of 2.03. For NWLGRPSKVLSLQDLCCNTIVSCT, the protein stability index was 2.5. NWLGRPSKVLSLQDLCCETIVSCT showed a protein stability index of 2.49. Variant NWLGRPSKVLSLQDLCCGTIVSCT has a protein stability index of 2. For NWLGRPSKVLSLQDLCCWTIVSCT, the protein stability index was 1.83. In the case of NWLGRPSKVLSLQDLCCTTIVSCT, the protein stability index is reported as 2.26. NWLGRPSKVLSLQDLCCITIVSCT gave a protein stability index of 1.68. NWLGRPSKVLSLQDLCCMTIVSCT showed a protein stability index of 1.72. NWLGRPSKVLSLQDLCCCTIVSCT showed a protein stability index of 2.35. For NWLGRPSKVLSLQDLCCYTIVSCT, the protein stability index was 1.73. NWLGRPSKVLSLQDLCCSTIVSCT gave a protein stability index of 2.58. Work on NWLGRPSKVLSLQDLCCVTIVSCT yielded a protein stability index of 2.39. In the case of NWLGRPSKVLSLQDLCCLTIVSCT, the protein stability index is reported as 2.11. NWLGRPSKVLSLQDLCCQTIVSCT showed a protein stability index of 2.26. For NWLGRPSKVLSLWDLCCRTIVSCT, the protein stability index was 2.82. NWLGRPSKVLSLTDLCCRTIVSCT showed a protein stability index of 2.51. With NWLGRPSKVLSLMDLCCRTIVSCT the protein stability index was 2.12. With NWLGRPSKVLSLHDLCCRTIVSCT the protein stability index was 2.62. Variant NWLGRPSKVLSLCDLCCRTIVSCT has a protein stability index of 2.42. For NWLGRPSKVLSLRDLCCRTIVSCT, the protein stability index was 3.23. For NWLGRPSKVLSLSDLCCRTIVSCT, the protein stability index was 2.67. With NWLGRPSKVLSLGDLCCRTIVSCT the protein stability index was 2.21. In the case of NWLGRPSKVLSLVDLCCRTIVSCT, the protein stability index is reported as 2.81. Variant NWLGRPSKVLSLKDLCCRTIVSCT has a protein stability index of 2.86. In the case of NWLGRPSKVLSLEDLCCRTIVSCT, the protein stability index is reported as 2.41. Variant NWLGRPSKVLSLIDLCCRTIVSCT has a protein stability index of 2.93. Work on NWLGRPSKVLSLFDLCCRTIVSCT yielded a protein stability index of 2.75. Variant NWLGRPSKVLSLNDLCCRTIVSCT has a protein stability index of 1.8. In the case of NWLGRPSKVLSLADLCCRTIVSCT, the protein stability index is reported as 2.86. For NWLGRPSKVLSLLDLCCRTIVSCT, the protein stability index was 2.44. NWLGRPSKVLSLDDLCCRTIVSCT gave a protein stability index of 1.61. With NWLGRPSKVLSLYDLCCRTIVSCT the protein stability index was 2.42. NWLGRPSKVLSLPDLCCRTIVSCT gave a protein stability index of 1.68. Work on NWLGRPSKVLSLQDLCIRTIVSCT yielded a protein stability index of 2.54. With NWLGRPSKVLSLQDLCYRTIVSCT the protein stability index was 2.22. For NWLGRPSKVLSLQDLCGRTIVSCT, the protein stability index was 2.34. NWLGRPSKVLSLQDLCMRTIVSCT showed a protein stability index of 2.54. For NWLGRPSKVLSLQDLCQRTIVSCT, the protein stability index was 3.09. NWLGRPSKVLSLQDLCKRTIVSCT showed a protein stability index of 3.26. With NWLGRPSKVLSLQDLCTRTIVSCT the protein stability index was 3.23. NWLGRPSKVLSLQDLCLRTIVSCT showed a protein stability index of 2.77. NWLGRPSKVLSLQDLCERTIVSCT gave a protein stability index of 3.08. Variant NWLGRPSKVLSLQDLCSRTIVSCT has a protein stability index of 2.75. Variant NWLGRPSKVLSLQDLCPRTIVSCT has a protein stability index of 1.74. NWLGRPSKVLSLQDLCDRTIVSCT gave a protein stability index of 2.79. Work on NWLGRPSKVLSLQDLCVRTIVSCT yielded a protein stability index of 2.6. NWLGRPSKVLSLQDLCHRTIVSCT showed a protein stability index of 2.88. NWLGRPSKVLSLQDLCARTIVSCT showed a protein stability index of 2.66. Work on NWLGRPSKVLSLQDLCFRTIVSCT yielded a protein stability index of 2.53. NWLGRPSKVLSLQDLCRRTIVSCT gave a protein stability index of 3.23. Variant NWLGRPSKVLSLQDLCWRTIVSCT has a protein stability index of 2.03.
